This is an account of results in paper PMC12906813, “The Transcription Factors NFYA1 and GBF3 Jointly Regulate CHS2 to Promote Tangeretin Accumulation and Cold Tolerance in Citrus”.

One data set has as its target T1, CiGBF3 (Citrus ichangensis (Ichang papeda), UniProt V4U7K8 1-421).
T1 sequence: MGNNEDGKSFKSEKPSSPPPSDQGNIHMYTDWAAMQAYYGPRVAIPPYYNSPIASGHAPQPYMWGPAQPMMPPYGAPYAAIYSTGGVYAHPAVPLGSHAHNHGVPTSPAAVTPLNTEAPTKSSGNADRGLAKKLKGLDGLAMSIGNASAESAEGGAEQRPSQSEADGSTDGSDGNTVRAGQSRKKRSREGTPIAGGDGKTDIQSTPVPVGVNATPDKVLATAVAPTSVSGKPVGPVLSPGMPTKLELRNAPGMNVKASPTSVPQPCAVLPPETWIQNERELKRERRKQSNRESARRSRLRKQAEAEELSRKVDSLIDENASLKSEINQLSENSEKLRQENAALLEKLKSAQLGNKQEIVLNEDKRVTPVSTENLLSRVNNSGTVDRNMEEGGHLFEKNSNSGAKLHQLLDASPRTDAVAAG
The data set is described as follows: EMSA; Chemiluminescent EMSA Kit (Beyotime GS009); buffer, salt, pH and temperature not stated. The note with it: protein: recombinant; tags: His (pHMGWA vector); chain copies: 2; label: biotin; blunt.

Another data set addresses CiNFYA1 (Citrus ichangensis (Ichang papeda), UniProt A0A067ER94 1-365). Described as above. The note with it: protein: recombinant; tags: His (pHMGWA vector); label: biotin; blunt.

Chain of CiNFYA1 (A0A067ER94 entry or part of it): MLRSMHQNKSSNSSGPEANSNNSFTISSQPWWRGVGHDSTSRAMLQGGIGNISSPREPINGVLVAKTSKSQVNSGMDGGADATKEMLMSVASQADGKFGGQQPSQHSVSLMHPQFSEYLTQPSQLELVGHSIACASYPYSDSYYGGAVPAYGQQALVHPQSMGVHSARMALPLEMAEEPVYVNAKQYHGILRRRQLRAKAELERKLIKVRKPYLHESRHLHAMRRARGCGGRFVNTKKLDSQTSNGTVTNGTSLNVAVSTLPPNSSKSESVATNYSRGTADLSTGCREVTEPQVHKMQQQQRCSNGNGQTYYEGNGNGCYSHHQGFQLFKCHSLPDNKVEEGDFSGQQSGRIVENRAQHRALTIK

B1: CHS2-mCACGTG probe (mProbe2) (dsDNA)
DNA 1: GCAGCCTAACACTATCTTTTTTGTCAGCATCTGCCCGT
DNA 2: ACGGGCAGATGCTGACAAAAAAGATAGTGTTAGGCTGC
For B1, the binding result with CiGBF3 was “no binding”.

B2: CHS2-CCAAT probe (Probe 1) (dsDNA)
DNA 1: AAAGATCCATTTAATATGTTCCAATTACCGCATTACAAGTACTAAA
DNA 2: TTTAGTACTTGTAATGCGGTAATTGGAACATATTAAATGGATCTTT
On to B2, for which the binding result in the data set with CiNFYA1 is “binds”.

B3: CHS2-mCCAAT probe (mProbe1) (dsDNA)
DNA 1: AAAGATCCATTTAATATGTAAAAAATACCGCATTACAAGTACTAAA
DNA 2: TTTAGTACTTGTAATGCGGTATTTTTTACATATTAAATGGATCTTT
On to B3, for which the binding result with CiNFYA1 is “no binding”.

B4: CHS2-CACGTG probe (Probe 2) (dsDNA)
DNA 1: GCAGCCTAACACTATCCACGTGGTCAGCATCTGCCCGT
DNA 2: ACGGGCAGATGCTGACCACGTGGATAGTGTTAGGCTGC
For the molecule B4, the binding result in the data set with CiGBF3 is “binds”.
